Laboratory results: US20230212279A1, “TREATMENT AND PREVENTION OF DISEASE CAUSED BY TYPE IV COLLAGEN DYSFUNCTION” (Singapore Health Services PTE, LTD., priority 2020, published 2023)
“Also recorded” adds a separate entry of the source.

What was measured:
[1] = test system: rheumatoid synovial cells; details: rheumatoid synovial cells upon treatment; cited from earlier work
[2] = test system: Col4a3-/- mice; details: cited from earlier work
[3] = target: T1, mouse IL11 receptor IL11RA1 (mouse, UniProt Q64385 24-432); test: immunohistochemistry on mouse kidney sections (wild-type vs Il11ra1-/-)
T1 construct: whole, on cells; Endogenous protein detected in tissue sections; also called IL-11Rα
T1 sequence (looked up): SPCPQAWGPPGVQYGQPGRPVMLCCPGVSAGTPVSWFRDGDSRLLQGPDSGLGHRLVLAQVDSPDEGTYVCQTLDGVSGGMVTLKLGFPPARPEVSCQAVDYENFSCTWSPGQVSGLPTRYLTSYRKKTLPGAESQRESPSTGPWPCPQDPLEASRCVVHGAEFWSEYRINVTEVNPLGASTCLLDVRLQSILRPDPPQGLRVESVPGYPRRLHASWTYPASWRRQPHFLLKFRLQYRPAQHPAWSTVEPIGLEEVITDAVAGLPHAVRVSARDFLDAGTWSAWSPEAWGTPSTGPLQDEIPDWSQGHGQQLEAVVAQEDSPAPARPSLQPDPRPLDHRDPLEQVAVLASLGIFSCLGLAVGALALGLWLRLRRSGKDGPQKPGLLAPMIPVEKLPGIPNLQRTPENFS
From the text: FIGS. 2A to 2E. […] (2A-2C) Renal (2A) II11 RNA and (2B-2C) IL11 protein expression in wildtype and Col4a3^{-/-} mice. (2D) Immunohistochemistry staining of IL11RA with anti-IL11RA (X209) or IgG (11E10) as control on the kidneys of wild-type and II11ra1^{-/-} mice (scale bars, 20 μm). (2E) Comparison of II11ra1 and gp130 expression in mouse kidney cells based on single cell transcriptomic analysis by Park et. al.¹⁶. (2A) Data are shown as box-and-whisker with median (middle line), 25th-75th percentiles (box) and min-max values (whiskers), (2C) data are shown as mean±SD; 2-tailed Student's t-test. FC: fold change.
(§1) Kidneys were fixed in 10% neutral-buffered formalin (NBF), paraffinized, cut into 7 μm sections, incubated with primary antibodies overnight and visualized using an ImmPRESS HRP anti-rabbit IgG polymer detection kit (MP-7401, Vector Laboratories) with ImmPACT DAB Peroxidase Substrate (SK-4105, Vector Laboratories). Quantification of WT^+ve cells were performed in a blinded fashion from 4 images (200× field)/kidney (n=3-4 kidneys/group).

[4] = test system: mice homozygous for the Col4a3tm1Dec mutation; test: Survival in mouse model of Alport syndrome (Example 1); type: in vivo; details: 20 mg/kg intraperitoneal, biweekly, from 6 weeks of age until mortality
From the text: 129-Col4a3^tm1Dec/J mice were obtained from The Jackson Laboratory (Stock No:002908; COL4A3 KO). The mice comprise the Co/4a3^tm1Dec mutation described e.g. in Cosgrove et al., Genes Dev. (1996) 10:2981-2992, which is hereby incorporated by reference in its entirety. 129-Col4a3^tm1Dec/J mice comprise a targeted mutation to Col4a3, resulting in progressive glomerulonephritis with microhematuria and proteinuria, and mice homozygous for the mutation typically die at about 8.5 weeks.
From 6 weeks of age, mice homozygous for the Co/4a3^tm1Dec mutation were administered biweekly by intraperitoneal injection of 20 mg/kg of Enx203, or an isotype-matched control antibody, until mortality.

[5] = test system: Col4a3-/- mice; test: Lifespan study in Col4a3-/- mice (Example 2); type: in vivo, mouse; details: 20 mg/kg 2x/week from 6 weeks of age until death
Protocol: (§2) Col4a3^−/− (Col4a3^tm1Dec) mice were purchased from The Jackson Laboratory (https://www.jax.org/strain/002908). Mice were housed in temperatures of 21-24° C. with 40-70% humidity on a 12 h light/12 h dark cycle and provided with food and water ad libitum. For treatment study, Col4a3^−/− were administered 20 mg/kg of anti-IL11 (X203) or IgG isotype control (11E10) by intraperitoneal (IP) injection starting from 6 weeks of age twice a week for 2.5 weeks; wild-type littermates were used as controls. Mice were sacrificed for blood and kidney collection when they were 8.5-week-old. For lifespan study, IgG/X203 was administered to 6-week-old Col4a3^−/− (2×/week) until death ensued.
Statistical analyses were performed using GraphPad Prism software (version 8). Statistical significance between control and experimental groups were analysed by twosided Student's t tests or by one-way ANOVA as indicated in the figure legends. P values were corrected for multiple testing according to Tukey when several conditions were compared to each other within one experiment. Comparison analysis for two parameters from two different groups were performed by two-way ANOVA. Survival curves were analyzed by Gehan-Breslow-Wilcoxon test. The criterion for statistical significance was P<0.05.

[6] = test system: Col4a3-/- mice; test: Treatment study in Col4a3-/- mice: body weight and kidney weight; type: in vivo, mouse
Protocol: as §2

[7] = test system: kidneys of Col4a3-/- mice; test: Treatment study: kidney fibrosis (renal collagen content, Masson's Trichrome staining); type: in vivo, mouse; details: 20 mg/kg IP 2x/week from 6 weeks for 2.5 weeks; vs IgG
Protocol: as §2
Kidney tissues were fixed for 48 hours at RT in 10% neutral-buffered formalin (NBF), dehydrated, embedded in paraffin, and sectioned at 7 μm. Transverse kidney sections were then stained with Masson's Trichrome according to standard protocol. Images of the sections were captured by light microscopy and blue-stained fibrotic areas were semi-quantitatively determined with Image-J software (color deconvolution-Masson Trichrome) from the whole kidney area (100× field, n=4 kidneys/group). Treatment and genotypes were not disclosed to investigators performing the histology and generating semi-quantitative readouts.

[8] = test system: kidneys of Col4a3-/- mice; test: Treatment study: renal mRNA expression by qPCR; type: in vivo, mouse; details: 20 mg/kg IP 2x/week from 6 weeks for 2.5 weeks
Protocol: as §2
Total RNA was extracted from snap-frozen kidney tissues using Trizol (Invitrogen) followed by RNeasy column (Qiagen) purification. cDNAs were synthesized with iScript™ cDNA synthesis kit (Bio-Rad) according to manufacturer's instructions. Gene expression analysis was performed on duplicate samples with either TaqMan (Applied Biosystems) or fast SYBR green (Qiagen) technology using StepOnePlus™ (Applied Biosystem) over 40 cycles. Expression data were normalized to GAPDH mRNA expression and fold change was calculated using 2^−ΔΔct method. The sequences of specific TaqMan probes and SYBR green primers are available upon request.

[9] = test system: kidneys of Col4a3-/- mice; test: Treatment study: Western blot of kidney protein extracts; type: in vivo, mouse; details: 20 mg/kg IP 2x/week from 6 weeks for 2.5 weeks; vs IgG
Protocol: as §2
Western blot was carried out on total protein extracts from mouse kidney tissues. Kidneys were lysed in radioimmunoprecipitation assay (RIPA) buffer containing protease and phosphatase inhibitors (Thermo Scientifics), followed by centrifugation to clear the lysate. Protein concentrations were determined by Bradford assay (Bio-Rad). Protein lysates were separated by SDS-PAGE, transferred to PVDF membrane, and subjected to immunoblot analysis for various antibodies as outlined in the main text, figures, or and/or figure legends. Proteins were visualized using the ECL detection system (Pierce) with the appropriate secondary antibodies: anti-rabbit HRP or antimouse HRP.

[10] = test system: kidneys of Col4a3-/- mice; test: Treatment study: Wilms' Tumor 1 immunohistochemistry (podocytes); type: in vivo, mouse; details: 20 mg/kg IP 2x/week from 6 weeks for 2.5 weeks, vs IgG
Protocol: as §2, §1

[11] = test system: Col4a3-/- mice; test: Treatment study: renal function by colorimetric assays (BUN, creatinine, urinary albumin:creatinine); type: in vivo, mouse; details: 20 mg/kg 2x/week from week 6; study end 8.5 weeks of age; vs IgG
Protocol: as §2
The levels of blood urea nitrogen (BUN) and creatinine in mouse serum were measured using Urea Assay Kit (ab83362, Abcam) and Creatinine Assay Kit (ab65340, Abcam), respectively. Urine albumin and creatinine levels were measured using Mouse Albumin ELISA kit (ab108792, Abcam) and Creatinine Assay Kit (ab204537, Abcam), respectively. All ELISA and colorimetric assays were performed according to the manufacturer's protocol.

[12] = treatment of 4-week-old mice, prior to onset of proteinuria and tubulointerstitial fibrosis

In the case of `COc1ccc2c(c1)c(CC(=O)O)c(C)n2C(=O)c1ccc(Cl)cc1` [indomethacin, reference compound], the “expression of IL-11” value [1] is listed as “reduction”.

In the case of `CCOC(=O)[C@H](CCc1ccccc1)N[C@@H](C)C(=O)N1[C@H](C(=O)O)C[C@@H]2CCC[C@@H]21` [ramipril], the “effect of delayed treatment” value ([2]; treatment delayed until after proteinuria was established (6-week-old mice)) is listed as “ineffective; also recorded: no beneficial effect”, the kidney dysfunction [2, 12] is listed as “attenuated” and the lifespan [2, 12] is listed as “prolonged”.

B1: anti-IL11RA antibody X209 (antibody, V domains shown)
VH: QVQLQQPGAELVRPGSSVKLSCKASGYTFTNYWMHWLKQRPVQGLEWIGNIGPSDSKTHYNQKFKDKATLTVDKSSSTAYMQLNSLTSEDSAVYYCARGDYVLFTYWGQGTLVTVSA
VL: DIVLTQSPATLSLSPGERATLSCRASQSISNNLHWYQQKSHEAPRLLIKYASQSISGIPARFSGSGSGTDFTLSFSSLETEDFAVYFCQQSYSWPLTFGQGTKLEIK
notes: also called Enx209; anti-IL11RA (X209, Aldevron)
B1: binds [3].

B2: X203: mouse anti-mouse IL-11 IgG, neutralizing IL11 antibody; VH SEQ ID NO:22, VL SEQ ID NO:23 (antibody, V domains shown)
VH: EVQLQQSGPELVKPGASVKIPCKASGYTFTDYNMDWVKQSHGKSLEWIGDINPHNGGPIYNQKFTGKATLTVDKSSSTAYMELRSLTSEDTAVYYCARGELGHWYFDVWGTGTTVTVSS
VL: DIVLTQSPASLAVSLGQRATISCRASKSVSTSGYSYIHWYQQKPGQPPKLLIYLASNLDSGVPARFSGSGSGTDFTLNIHPVEEEDAATYYCQHSRDLPPTFGGGTKLEIK
In the case of B2, the “increase in survival relative to mice treated with isotype-matched control antibody” value [4] is reported as “up to 40%”, the median lifespan ([5]; IgG control 62.5 days, P=0.0015) is reported as 88.5 days and the “extension of median life span” value ([5]; vs IgG control) is reported as 41.6%. For the same molecule, the kidney mass ([6]; 20 mg/kg IP 2x/week from 6 weeks for 2.5 weeks, vs IgG) was “preserved”, the “total body weight loss, as percentage of starting body weight” value ([6]; 20 mg/kg IP 2x/week from 6 weeks of age for 2.5 weeks, end of study, IgG control 30%, P=0.0003) was 17% and the “kidney fibrosis by biochemical and histological assessments” value [7] was “significantly less”. For the same molecule, the “CC chemokine CcI2 mRNA” value ([8]; vs IgG) was “diminished”, the “CC chemokine CcI5 mRNA” value ([8]; vs IgG) was “diminished” and the Tnfα expression ([8]; vs IgG) was “reduced”. The “proinflammatory interleukin II1b mRNA” value ([8]; vs IgG) was “diminished”, the “proinflammatory interleukin II6 mRNA” value ([8]; vs IgG) was “diminished” and the “renal level of Col1a1 gene expression” value ([8]; vs IgG) was “reduced”. The “renal level of Col1a2 gene expression” value ([8]; vs IgG) was “reduced”, the “renal level of Col3a1 gene expression” value ([8]; vs IgG) was “reduced” and the “renal level of Fn gene expression” value ([8]; vs IgG) was “reduced”. The “renal level of II11 gene expression” value ([8]; vs IgG) was “reduced”, the “renal level of Tgfb1 gene expression” value ([8]; vs IgG) was “reduced” and the “renal level of myofibroblast marker Acta2 gene expression” value ([8]; vs IgG) was “reduced”. For the same molecule, the “tubule damage indicator Kim1 mRNA” value ([8]; vs IgG and wild-type) was “restored”, the “tubule damage indicator Ngal mRNA” value ([8]; vs IgG and wild-type) was “restored” and the “Caspase 3 activation” value [9] was “reduced”. The “ERK phosphorylation in kidneys” value [9] was “largely diminished”, the “Podocin protein level (immunoblotting)” value [9] was “restored towards normal” and the “STAT3 phosphorylation in kidneys” value [9] was “largely diminished”. The “Wilms' Tumor 1 protein level (immunoblotting)” value [9] was “restored towards normal; also recorded: Preservation of podocytes”, the “alpha-smooth muscle actin (αSMA) protein level (reduction seen on transcript)” value [9] was “confirmed at the protein level” and the “degree of TGFβ upregulation in the kidneys” value [9] was “significantly reduced”. The “fibronectin protein level (reduction seen on transcript)” value [9] was “confirmed at the protein level”, the “Wilms' Tumor 1 (WT1) staining” value [10] was “greater staining” and the “number of WT1-positive cells (podocytes)” value ([10]; blinded quantification) was “restored towards normal; also recorded: significant (P=0.0002) restoration”. For the same molecule, the “serum blood urea nitrogen (BUN)” value [11] was “markedly lowered”, the “serum creatinine (Cr)” value [11] was “markedly lowered” and the “urinary albumin:creatinine ratio (ACR)” value [11] was “markedly lowered”.

B3: interferon-gamma: interferon-gamma (IFNγ) (protein, UniProt P01579 24-161, looked up)
Interferon gamma: QDPYVKEAENLKKYFNAGHSDVADNGTLFLGILKNWKEESDRKIMQSQIVSFYFKLFKNFKDDQSIQKSVETIKEDMNVKFFNSNKKKRDDFEKLTNYSVTDLNVQRKAIHELIQVMAELSPAAKTGKRKRSQMLFRG
In the case of B3, the “expression of IL-11” value [1] is given as “reduction”.
